# In the supplement of paper PMC10567573:
# B1: TRAF3IP2 (parent)
# chain: KEHVPTWLQNTHVYSWPKNKKNIL
# Variants of: B1
# Assay: protein stability index of a GFP-peptide fusion (GPS, HEK-293T) (PSI 1-6); higher = more stable
# Details: c terminus: a fixed tail appended
# 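Also: lentivirally expressed fusions sorted by FACS into six bins by GFP to DsRed ratio, PSI derived from sequencing read proportions per bin multiplied by bin number.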
row,Variant,protein stability index
1,KEHDPTWLQNTHVYSWPKNKKNIL,3.29
2,KEHVPTWLQNTEVYSWPKNKKNIL,3.38
3,KEHVPTWLQNTDVYSWPKNKKNIL,2.75
4,KEHVPTWLQNTCVYSWPKNKKNIL,2.46
5,KEHVPTWLQNTAVYSWPKNKKNIL,2.86
6,KEHVPTKLQNTHVYSWPKNKKNIL,3.34
7,KEHVPTNLQNTHVYSWPKNKKNIL,3.63
8,KEHVPTLLQNTHVYSWPKNKKNIL,3.2
9,KEHVPTYLQNTHVYSWPKNKKNIL,2.88
10,KEHVPTRLQNTHVYSWPKNKKNIL,2.85
11,KEHVPTVLQNTHVYSWPKNKKNIL,3.82
12,KEHVPTGLQNTHVYSWPKNKKNIL,3.99
13,KEHVPTHLQNTHVYSWPKNKKNIL,3.21
14,KEHVPTMLQNTHVYSWPKNKKNIL,3.61
15,KEHVPTTLQNTHVYSWPKNKKNIL,3.84
16,KEHVPTQLQNTHVYSWPKNKKNIL,3.74
17,KEHVPTSLQNTHVYSWPKNKKNIL,3.31
18,KEHVPTFLQNTHVYSWPKNKKNIL,2.82
19,KEHVPTALQNTHVYSWPKNKKNIL,3.39
20,KEHVPTPLQNTHVYSWPKNKKNIL,3.21
21,KEHVPTDLQNTHVYSWPKNKKNIL,3.07
22,KEHVPTELQNTHVYSWPKNKKNIL,3.97
23,KEHVPTCLQNTHVYSWPKNKKNIL,3.75
24,KEHVPTILQNTHVYSWPKNKKNIL,2.61

row,Variant,protein stability index
1,KNHVPTWLQNTHVYSWPKNKKNIL,2.14
2,KYHVPTWLQNTHVYSWPKNKKNIL,2.07
3,KIHVPTWLQNTHVYSWPKNKKNIL,1.58
4,KVHVPTWLQNTHVYSWPKNKKNIL,2.15
5,KHHVPTWLQNTHVYSWPKNKKNIL,2.08
6,KKHVPTWLQNTHVYSWPKNKKNIL,2.13
7,KMHVPTWLQNTHVYSWPKNKKNIL,2.5
8,KWHVPTWLQNTHVYSWPKNKKNIL,1.57
9,KQHVPTWLQNTHVYSWPKNKKNIL,2.15
10,KLHVPTWLQNTHVYSWPKNKKNIL,1.67
11,KRHVPTWLQNTHVYSWPKNKKNIL,3.4
12,KTHVPTWLQNTHVYSWPKNKKNIL,2.33
13,KSHVPTWLQNTHVYSWPKNKKNIL,2.53
14,KPHVPTWLQNTHVYSWPKNKKNIL,2.25
15,KGHVPTWLQNTHVYSWPKNKKNIL,1.93
16,KEHVPTWLYNTHVYSWPKNKKNIL,2.39
17,KEHVPTWLMNTHVYSWPKNKKNIL,2.53
18,KEHVPTWLVNTHVYSWPKNKKNIL,2.65
19,KEHVPTWLFNTHVYSWPKNKKNIL,2.38
20,KEHVPTWLGNTHVYSWPKNKKNIL,2.66
21,KEHVPTWLKNTHVYSWPKNKKNIL,1.87
22,KEHVPTWLLNTHVYSWPKNKKNIL,2.29
23,KEHVPTWLSNTHVYSWPKNKKNIL,2.62
24,KEHVPTWLHNTHVYSWPKNKKNIL,2.54

row,Variant,protein stability index
1,KEHVPTWLANTHVYSWPKNKKNIL,2.18
2,KEHVPTWLNNTHVYSWPKNKKNIL,3.18
3,KEHVPTWLPNTHVYSWPKNKKNIL,2.81
4,KEHVPTWLDNTHVYSWPKNKKNIL,2.53
5,KEHVPTWLENTHVYSWPKNKKNIL,2.68
6,KEHVPTWLCNTHVYSWPKNKKNIL,2.25
7,KEHVPTWLINTHVYSWPKNKKNIL,2.55
8,KEHVPTWLRNTHVYSWPKNKKNIL,1.97
9,KEHVPTWLTNTHVYSWPKNKKNIL,2.8
10,KEHVPHWLQNTHVYSWPKNKKNIL,2.29
11,KEHVPMWLQNTHVYSWPKNKKNIL,2.22
12,KEHVPWWLQNTHVYSWPKNKKNIL,1.53
13,KEHVPPWLQNTHVYSWPKNKKNIL,3.07
14,KEHVPCWLQNTHVYSWPKNKKNIL,1.81
15,KEHVPAWLQNTHVYSWPKNKKNIL,2.49
16,KEHVPSWLQNTHVYSWPKNKKNIL,2.88
17,KEHVPNWLQNTHVYSWPKNKKNIL,3.38
18,KEHVPQWLQNTHVYSWPKNKKNIL,2.51
19,KEHVPFWLQNTHVYSWPKNKKNIL,1.93
20,KEHVPIWLQNTHVYSWPKNKKNIL,2.21
21,KEHVPKWLQNTHVYSWPKNKKNIL,2.73
22,KEHVPEWLQNTHVYSWPKNKKNIL,2.59
23,KEHVPVWLQNTHVYSWPKNKKNIL,2.17
24,KEHVPYWLQNTHVYSWPKNKKNIL,2.32

row,Variant,protein stability index
1,KEHVPLWLQNTHVYSWPKNKKNIL,2.58
2,KEHVPDWLQNTHVYSWPKNKKNIL,2.71
3,KEHVPRWLQNTHVYSWPKNKKNIL,2.23
4,KEHVPGWLQNTHVYSWPKNKKNIL,2.81
5,KEHVQTWLQNTHVYSWPKNKKNIL,1.45
6,KEHVETWLQNTHVYSWPKNKKNIL,2.58
7,KEHVDTWLQNTHVYSWPKNKKNIL,3.08
8,KEHVITWLQNTHVYSWPKNKKNIL,1
9,KEHVTTWLQNTHVYSWPKNKKNIL,2.14
10,KEHVHTWLQNTHVYSWPKNKKNIL,2.06
11,KEHVLTWLQNTHVYSWPKNKKNIL,1.73
12,KEHVMTWLQNTHVYSWPKNKKNIL,2.27
13,KEHVVTWLQNTHVYSWPKNKKNIL,2.24
14,KEHVRTWLQNTHVYSWPKNKKNIL,1.95
15,KEHVATWLQNTHVYSWPKNKKNIL,2.66
16,KEHVCTWLQNTHVYSWPKNKKNIL,1.96
17,KEHVWTWLQNTHVYSWPKNKKNIL,2.76
18,KEHVNTWLQNTHVYSWPKNKKNIL,2.26
19,KEHVGTWLQNTHVYSWPKNKKNIL,2.38
20,KEHVKTWLQNTHVYSWPKNKKNIL,1.9
21,KEHVYTWLQNTHVYSWPKNKKNIL,1.94
22,KEHVSTWLQNTHVYSWPKNKKNIL,2.47
